Measurements: patent US20030031664A1 (GENERAL HOSPITAL, published 2003)

Legend:
[1] = target: T1, human alpha-2-antiplasmin (human, UniProt P08697 40-491, limits assumed, 125I-labelled in the radioimmunoassays; biotinylated in the competition assay of Example 5); assay: cell-based or functional assay
T1 sequence (looked up): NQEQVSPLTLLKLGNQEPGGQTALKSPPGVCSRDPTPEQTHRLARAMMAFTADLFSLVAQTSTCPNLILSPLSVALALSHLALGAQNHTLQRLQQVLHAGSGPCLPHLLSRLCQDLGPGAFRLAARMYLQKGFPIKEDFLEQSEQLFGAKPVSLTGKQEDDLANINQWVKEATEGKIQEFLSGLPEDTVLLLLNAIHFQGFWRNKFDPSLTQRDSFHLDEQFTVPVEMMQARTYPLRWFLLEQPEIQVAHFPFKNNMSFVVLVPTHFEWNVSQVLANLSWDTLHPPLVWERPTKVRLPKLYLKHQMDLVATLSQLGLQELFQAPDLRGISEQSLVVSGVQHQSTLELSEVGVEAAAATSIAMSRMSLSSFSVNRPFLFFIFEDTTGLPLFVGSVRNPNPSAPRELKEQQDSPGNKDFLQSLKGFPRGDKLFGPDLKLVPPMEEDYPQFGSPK

[2] = target: ferret α2-antiplasmin (ferret); assay: cell-based or functional assay

- increase in potency of lysis by urokinase (dose response with and without MAb) [1]: ~100 fold
- inhibition of ferret α2AP activity in plasma, ex vivo, 1 and 4 hours after 22.5 mg/kg i.v. (chromogenic plasmin inhibition assay) [2]: 75%
B1: monoclonal antibody 77A3 (antibody, V domains shown)
VH: QIQLVQSGPELKKPGETVKISCKASGYTFTNYGMNWVKQAPGKGLKWMGWINTKSGEPTYAEEFKGRFAFSLETSASTANLQIKNLKNEDTATYFCARWVPGTYAMDYWGQGTSVTVSS
VL: DIQMTQSPASLSASVGETVTITCRASGNIHNYLAWYQQKQGKSPQLLVYNAKTLADGVPSRFSGSGSGTQFSLKINSLQPEDFGSHYCQHFWTTPWTFGGGTKLEIK
